Assay results taken from IntAct's records for PubMed 11872753.

B1: Acid-sensing ion channel 3 (Rattus norvegicus (Rat)), O35240 (parent)
chain: MKPRSGLEEAQRRQASDIRVFASSCTMHGLGHIFGPGGLTLRRGLWATAVLLSLAAFLYQVAERVRYYGEFHHKTTLDERESHQLTFPAVTLCNINPLRRSRLTPNDLHWAGTALLGLDPAEHAAYLRALGQPPAPPGFMPSPTFDMAQLYARAGHSLEDMLLDCRYRGQPCGPENFTVIFTRMGQCYTFNSGAHGAELLTTPKGGAGNGLEIMLDVQQEEYLPIWKDMEETPFEVGIRVQIHSQDEPPAIDQLGFGAAPGHQTFVSCQQQQLSFLPPPWGDCNTASLDPDDFDPEPSDPLGSPRPRPSPPYSLIGCRLACESRYVARKCGCRMMHMPGNSPVCSPQQYKDCASPALDAMLRKDTCVCPNPCATTRYAKELSMVRIPSRASARYLARKYNRSESYITENVLVLDIFFEALNYEAVEQKAAYEVSELLGDIGGQMGLFIGASLLTILEILDYLCEVFQDRVLGYFWNRRSAQKRSGNTLLQEELNGHRTHVPHLSLGPRPPTTPCAVTKTLSASHRTCYLVTRL
partner: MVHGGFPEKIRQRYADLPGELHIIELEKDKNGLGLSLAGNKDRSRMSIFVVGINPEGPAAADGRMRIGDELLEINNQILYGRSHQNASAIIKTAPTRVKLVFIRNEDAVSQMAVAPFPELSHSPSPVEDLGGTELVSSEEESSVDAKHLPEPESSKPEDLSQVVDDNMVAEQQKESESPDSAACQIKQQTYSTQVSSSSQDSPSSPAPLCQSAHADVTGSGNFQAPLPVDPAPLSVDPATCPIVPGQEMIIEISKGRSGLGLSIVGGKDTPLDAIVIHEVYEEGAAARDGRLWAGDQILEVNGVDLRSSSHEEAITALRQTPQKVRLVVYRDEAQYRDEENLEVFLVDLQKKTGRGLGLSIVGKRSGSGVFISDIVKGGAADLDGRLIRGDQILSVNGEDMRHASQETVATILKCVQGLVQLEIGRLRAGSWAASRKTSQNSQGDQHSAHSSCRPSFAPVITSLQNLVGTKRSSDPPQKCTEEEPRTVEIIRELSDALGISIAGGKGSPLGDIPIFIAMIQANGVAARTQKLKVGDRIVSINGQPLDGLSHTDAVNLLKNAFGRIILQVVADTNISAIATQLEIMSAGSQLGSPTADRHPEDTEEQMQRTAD

Variants of: B1
Details: with Patj

| Variant | effect of a mutation on the interaction |
| --- | --- |
| MKPRSGLEEAQRRQASDIRVFASSCTMHGLGHIFGPGGLTLRRGLWATAVLLSLAAFLYQVAERVRYYGEFHHKTTLDERESHQLTFPAVTLCNINPLRRSRLTPNDLHWAGTALLGLDPAEHAAYLRALGQPPAPPGFMPSPTFDMAQLYARAGHSLEDMLLDCRYRGQPCGPENFTVIFTRMGQCYTFNSGAHGAELLTTPKGGAGNGLEIMLDVQQEEYLPIWKDMEETPFEVGIRVQIHSQDEPPAIDQLGFGAAPGHQTFVSCQQQQLSFLPPPWGDCNTASLDPDDFDPEPSDPLGSPRPRPSPPYSLIGCRLACESRYVARKCGCRMMHMPGNSPVCSPQQYKDCASPALDAMLRKDTCVCPNPCATTRYAKELSMVRIPSRASARYLARKYNRSESYITENVLVLDIFFEALNYEAVEQKAAYEVSELLGDIGGQMGLFIGASLLTILEILDYLCEVFQDRVLGYFWNRRSAQKRSGNTLLQEELNGHRTHVPHLSLGPRPPTTPCAVTKTLSASHRTCYLVTRF [L533F] | disrupting interaction |
